We go through two molecules from US20040214275.

Data set [1] concerns the target von Willebrand factor purified from human plasma cryoprecipitate (UniProt P04275).
The target of data set [2] is von Willebrand factor purified from human plasma cryoprecipitate, P04275.

Regarding “W897stop variant of the vWF-cleaving protease (lacking the region between the C-terminus and position W897)”, the “vWF-cleaving activity (qualitative)” value in data set [1] was “a variant lacking a region between the C-terminus and the position W897 was found to have activity, although it was the result of qualitative analysis”.

B1: vWF-cleaving protease derived from human plasma (protein)
chain: AAGGILHLELLVAVGPDVFQAHQEDTERYVLTNLNIGAELLRDPSLGAQFRVHLVKMVILTEPEGAPNITANLTSSLLSVCGWSQTINPEDDTDPGHADLVLYITRFDLELPDGNRQVRGVTQLGGACSPTWSCLITEDTGFDLGVTIAHEIGHSFGLEHDGAPGSGCGPSGHVMASDGAAPRAGLAWSPCSRRQLLSLLSAGRARCVWDPPRPQPGSAGHPPDAQPGLYYSANEQCRVAFGPKAVACTFAREHLDMCQALSCHTDPLDQSSCSRLLVPLLDGTECGVEKWCSKGRCRSLVELTPIAAVHGRWSSWGPRSPCSRSCGGGVVTRRRQCNNPRPAFGGRACVGADLQAEMCNTQACEKTQLEFMSQQCARTDGQPLRSSPGGASFYHWGAAVPHSQGDALCRHMCRAIGESFIMKRGDSFLDGTRCMPSGPREDGTLSLCVSGSCRTFGCDGRMDSQQVWDRCQVCGGDNSTCSPRKGSFTAGRAREYVTFLTVTPNLTSVYIANHRPLFTHLAVRIGGRYVVAGKMSISPNTTYPSLLEDGRVEYRVALTEDRLPRLEEIRIWGPLQEDADIQVYRRYGEEYGNLTRPDITFTYFQPKPRQAWVWAAVRGPCSVSCGAGLRWVNYSCLDQARKELVETVQCQGSQQPPAWPEACVLEPCPPYWAVGDFGPCSASCGGGLRERPVRCVEAQGSLLKTLPPARCRAGAQQPAVALETCNPQPCPARWEVSEPSSCTSAGGAGLALENETCVPGADGLEAPVTEGPGSVDEKLPAPEPCVGMSCPPGWGHLDATSAGEKAPSPWGSIRTGAQAAHVWTPAAGSCSVSCGRGLMELRFLCMDSALRVPVQEELCGLASKPGSRREVCQAVPCPARWQYKLAACSVSCGRGVVRRILYCARAHGEDDGEEILLDTQCQGLPRPEPQEACSLEPCPPRWKVMSLGPCSASCGLGTARRSVACVQLDQGQDVEVDEAACAALVRPEASVPCLIADCTYRWHVGTWMECSVSCGDGIQRRRDTCLGPQAQAPVPADFCQHLPKPVTVRGCWAGPCVGQGTPSLVPHEEAAAPGRTTATPAGASLEWSQARGLLFSPAPQPRRLLPGPQENSVQSSACGRQHLEPTGTIDMRGPGQADCAVAIGRPLGEVVTLRVLESSLNCSAGDMLLLWGRLTWRKMCRKLLDMTFSSKTNTLVVRQRCGRPGGGVLLRYGSQLAPETFYRECDMQLFGPWGEIVSPSLSPATSNAGGCRLFINVAPHARIAIHALATNMGAGTEGANASYILIRDTHSLRTTAFHGQQVLYWESESSQAEMEFSEGFLKAQASLRGQYWTLQSWVPEMQDPQSWKGKEGT
Turning to B1, in data set [2], the vWF-cleaving activity entry is “activity derived from the cryoprecipitate and the FI paste were found to cleave the peptide bond between residues Tyr 842 and Met 843”.
